Data taken from paper PMC4372375.

Target: pancreatic polypeptide (UniProt P01298)

**Q.** APLEPVYPGDNATPEQMAQYAADLRRYINMLTRPRY [pancreatic polypeptide] was tested. Which LDH release assay, % cell death of SH-SY5Y cells after 30 h with 10 μM PP oligomers formed with heparin (PP incubated without heparin: no significant LDH release) did it give?
**A.** 35%
